The record followed here is patent US20080292632A1 (US Dept. of Health and Human Services, published 2008).

Assay [1] deals with T1, IRTA5, full-length, on transfected 293T cells (human, UniProt Q96LA6 17-429).
T1 sequence: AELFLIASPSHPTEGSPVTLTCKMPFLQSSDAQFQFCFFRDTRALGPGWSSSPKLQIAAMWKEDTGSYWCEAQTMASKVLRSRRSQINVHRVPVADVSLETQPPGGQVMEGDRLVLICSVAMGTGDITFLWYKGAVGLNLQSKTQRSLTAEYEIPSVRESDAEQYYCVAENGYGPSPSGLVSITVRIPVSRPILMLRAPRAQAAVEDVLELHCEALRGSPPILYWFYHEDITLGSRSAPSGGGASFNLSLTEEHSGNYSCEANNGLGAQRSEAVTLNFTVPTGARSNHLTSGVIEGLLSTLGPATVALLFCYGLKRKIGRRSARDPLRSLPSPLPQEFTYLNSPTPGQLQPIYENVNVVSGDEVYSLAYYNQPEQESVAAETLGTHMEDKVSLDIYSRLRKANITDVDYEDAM
The assay is described as follows: FACS on transfected 293T (summary with IRTA-Fc ELISA, FIG. 2A and B). On the procedure:
(§1) FIGS. 2A-B are a bar graph and a set of plots showing the cross-reactivity of the anti-IRTA2 MAbs to other IRTA family members. FIG. 2A is a bar graph of the results from an ELISA of anti-IRTA2 MAbs to various Fc-fusion proteins. Each Fc-fusion protein indicated on the top of the column was captured on ELISA plates using secondary antibody (goat anti-human IgG). After washing, 100 ng/50 μl/well of MAbs were added, followed by HRP-labeled goat anti-mouse IgG and TMBZ substrate. The signals in ELISA were normalized for the amounts of each Fc-fusion protein on the plates using HRP-goat anti-human Fc. The controls are MAbs 9E10 (anti-myc tag, IgG1), BerH2 (anti-CD30, IgG1), T408 (anti-CD30, IgG2a), T420 (anti-CD30, IgG2b) and HRP-goat anti-human Fc (1/2400 dilution). […] Two days after transfection, the cells were harvested and incubated with 200 ng/100 μl of each MAb, followed by PE-conjugated goat anti-mouse IgG F(ab′)2. […] In the positive control panels, the MAbs cross-reactive to other IRTAs were used. They are F26 (anti-IRTA1 and anti-IRTA2, IgG2b), F109 (anti-IRTA3, IgG2b), F47 (anti-IRTA4, IgG2a), and F69 (anti-IRTA5, IgG2a). BerH2 (anti-CD30, IgG1) was also used. “+” indicates more than 1.5-fold than that of the control; “++” indicates more than 10-fold mean fluorescence intensity than that of the negative control.
(ELISA stands for enzyme-linked immunosorbent assay.)

The target in assay [2] is T2, IRTA1, full-length, on transfected 293T cells (human, UniProt Q96PJ5 20-515).
T2 sequence: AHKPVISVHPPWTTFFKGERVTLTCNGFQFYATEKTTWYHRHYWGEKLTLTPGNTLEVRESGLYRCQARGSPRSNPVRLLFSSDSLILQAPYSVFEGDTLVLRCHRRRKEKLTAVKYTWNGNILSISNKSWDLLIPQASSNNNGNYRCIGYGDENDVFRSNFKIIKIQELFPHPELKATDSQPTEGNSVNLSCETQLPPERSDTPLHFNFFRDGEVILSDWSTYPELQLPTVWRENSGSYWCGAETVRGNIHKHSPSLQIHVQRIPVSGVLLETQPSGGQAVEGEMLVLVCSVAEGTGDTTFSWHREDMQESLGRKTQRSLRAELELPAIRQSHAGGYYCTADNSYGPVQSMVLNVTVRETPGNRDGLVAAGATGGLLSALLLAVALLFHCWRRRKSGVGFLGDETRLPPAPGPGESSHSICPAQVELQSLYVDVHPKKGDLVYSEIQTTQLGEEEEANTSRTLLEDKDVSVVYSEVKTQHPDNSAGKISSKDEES
The assay is described as above. On the procedure: as §1

For assay [3], the target named is T3, IRTA4, full-length, on transfected 293T cells (human, UniProt Q96LA5 20-508).
T3 sequence: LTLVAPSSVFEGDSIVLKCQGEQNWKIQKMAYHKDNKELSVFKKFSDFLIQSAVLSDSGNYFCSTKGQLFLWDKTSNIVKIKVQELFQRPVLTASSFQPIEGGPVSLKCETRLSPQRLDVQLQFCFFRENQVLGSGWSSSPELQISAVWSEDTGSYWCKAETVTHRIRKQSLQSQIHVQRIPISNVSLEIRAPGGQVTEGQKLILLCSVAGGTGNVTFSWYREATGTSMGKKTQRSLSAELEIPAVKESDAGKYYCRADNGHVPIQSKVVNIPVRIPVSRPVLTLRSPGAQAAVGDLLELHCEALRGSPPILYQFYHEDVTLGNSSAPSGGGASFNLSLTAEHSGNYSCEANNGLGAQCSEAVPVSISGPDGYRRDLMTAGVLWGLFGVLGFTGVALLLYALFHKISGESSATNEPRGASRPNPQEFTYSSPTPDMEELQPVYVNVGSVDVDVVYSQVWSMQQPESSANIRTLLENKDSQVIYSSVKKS
The assay is described as above. On the procedure: as §1

In assay [4] the target is T4, CD30 on transfected 293T cells (human, UniProt P28908 19-595).
T4 construct: whole, on cells
T4 sequence (looked up): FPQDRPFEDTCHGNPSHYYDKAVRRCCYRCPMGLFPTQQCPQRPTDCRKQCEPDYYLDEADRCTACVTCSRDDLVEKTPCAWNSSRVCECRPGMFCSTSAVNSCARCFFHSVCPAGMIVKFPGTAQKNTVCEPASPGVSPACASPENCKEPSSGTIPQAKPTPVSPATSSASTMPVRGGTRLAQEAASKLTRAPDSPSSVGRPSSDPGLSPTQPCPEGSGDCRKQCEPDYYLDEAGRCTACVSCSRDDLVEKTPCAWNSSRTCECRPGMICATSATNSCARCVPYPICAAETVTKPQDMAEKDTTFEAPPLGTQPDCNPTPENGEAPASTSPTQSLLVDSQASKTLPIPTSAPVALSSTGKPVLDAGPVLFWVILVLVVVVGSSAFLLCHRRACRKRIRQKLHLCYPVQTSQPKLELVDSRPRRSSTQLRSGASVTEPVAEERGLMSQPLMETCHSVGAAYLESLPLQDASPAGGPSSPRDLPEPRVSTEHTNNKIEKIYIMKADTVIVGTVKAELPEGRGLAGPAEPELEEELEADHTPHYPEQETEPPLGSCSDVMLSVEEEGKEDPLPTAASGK
As to the kind of experiment: cell-ELISA, formalin-fixed cells. On the procedure:
Cell-ELISA. […] After overnight culture, the cells were fixed with 3.7% formalin in the culture medium at room temperature overnight. Incubation with a dilution of MAbs, secondary antibody and substrate was performed as described in the ELISA protocol except that 1% FBS in PBS was used for washing.

B1: F25 (antibody, IgG2a, V domains shown)
VH: EVQLQQSGPELVKPGTSVKMSCKASGYSFTGYFMNWMMQNHGKSLEWIGRINLYNGDTFYNQKFKDKATLTVDKSSNTVHMEFRSLASEDSAVYYCASSLYYFDYWGQGTTFTVSS
VL: DIVMTQSHKFMSTSVGDRVNITCKASQDVGTNVAWYQQKPGQSPKLLIYWASTRQTGVPDRFTGSGSGTDFTLTISNVQSEDLSDYFCQQYSSYPLTFGAGTKLELKR
notes: mouse hybridoma MAb, IgG2a, kappa; also called MAb F25; biotin-MAb F25
Take B1: the binding result is “no binding” in assay [1], “no binding” in assay [2], “no binding” in assay [3] and “no binding (tested: ’0.2)” in assay [4].
